Reference: publication PMC3064778

Experiments:
AddAB = AddAB (Bacillus subtilis, UniProt P23478;P23477 1-1232;1-1166); assay: EMSA
AddANBN = AddANBN (Bacillus subtilis, UniProt P23478;P23477 1-1232;1-1166, D1172A;D961A); assay: EMSA

B1: Bind15 (dsDNA)
DNA 1: CCGCCTCTTGGCCGATTCA
DNA 2: TCGGCCAAGAGGCGGTTTG
AddAB
  binding result: binds

B2: Cy5Bind15 (dsDNA)
DNA 1: CCGCCTCTTGGCCGATTCA
DNA 2: TCGGCCAAGAGGCGGTTTG
AddANBN
  binding result: binds
